# Biological target: thrombin (Homo sapiens, UniProt P00734)
# Experiment: In vitro thrombin inhibition assay (coagulation time) as in Example 2, with re-use of isolated Sepharose-hirudin
# Type: biochemical
# Settings: isolated from treated plasma, washed with 1 to 1.5 M NaCl, employed again
# Description: Female and male Wistar rats with a body weight of about 300 g are anesthetized with ethylurethane (1.5 g/kg i.p.). 1000 AT-U/kg of a hirudin derivative or authentic `Leu-Thr-hirudin`, which has been dissolved in physiological saline, are administered i.v. to the rats. A catheter is implanted in the carotid of the animals for blood sampling. Blood is taken from the animals and treated with citrate for the determination of anti-thrombin activity. 0.1 ml of the blood treated in this way is mixed with 0.2 ml of Tris/HCl buffer (0.1 mol/1; pH 7.4) and preincubated at 37° C. After addition of 0.1 ml of a thrombin solution (10 NIH-U/ml) the coagulation time is determined using a Schnitger and Gross coagulometer. In parallel with the experiment a calibration plot is constructed using reference plasma, from which the particular plasma hirudin or plasma hirudin derivative concentration is read off.
# The protein coupling yield is 5 %. The biological activity is determined in vitro as in Example 2. The Sepharose-hirudin is isolated from the treated plasma, washed with a 1 to 1.5 M NaCl solution and again employed in the inhibition assay.
substance,measurement,value
Sepharose-hirudin: hirudin immobilised on activated CH-Sepharose 4 B (Pharmacia),measured activity on re-use in the inhibition assay,within the limit of error of the first measurement

# Source: patent publication US5538946A, “Hirudin derivatives with delayed action” (Hoechst Aktiengesellschaft, priority 1988, dated 1996)
